To fix the notation:
T1: human APJ receptor (hAPJ) (human, UniProt P35414 1-380)
T1 sequence (looked up): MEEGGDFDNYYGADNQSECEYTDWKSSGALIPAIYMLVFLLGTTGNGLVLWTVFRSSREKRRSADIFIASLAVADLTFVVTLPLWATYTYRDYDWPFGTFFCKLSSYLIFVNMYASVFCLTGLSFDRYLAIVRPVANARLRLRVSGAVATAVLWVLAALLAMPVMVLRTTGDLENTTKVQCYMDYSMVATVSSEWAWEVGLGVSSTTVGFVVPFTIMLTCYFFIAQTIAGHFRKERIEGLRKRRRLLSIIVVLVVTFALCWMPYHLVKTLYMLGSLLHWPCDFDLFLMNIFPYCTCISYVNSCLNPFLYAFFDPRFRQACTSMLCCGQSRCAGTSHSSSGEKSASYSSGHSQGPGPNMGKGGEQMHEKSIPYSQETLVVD

B1: pE-R-P-C*-L-S-C*-K-G-P-(D-Nle)-a-f-OH (peptide)
peptide: ERPCLSCKGPLAF
modifications: pE at 1; disulfide C4-C7; D-Nle at 11; D-Ala (a) at 12; D-Phe (f) at 13; free C-terminal acid
B2: pE-R-P-C*-L-S-C*-F-G-P-(D-Nle)-a-f-OH (peptide)
peptide: [pGlu]RPCLSCFGP[dNle][dA][dF]-OH
modifications: disulfide 4-7
SMILES: CCCC[C@@H](NC(=O)[C@@H]1CCCN1C(=O)CNC(=O)[C@H](Cc1ccccc1)NC(=O)[C@@H]1CSSC[C@H](NC(=O)[C@@H]2CCCN2C(=O)[C@H](CCCNC(=N)N)NC(=O)[C@@H]2CCC(=O)N2)C(=O)N[C@@H](CC(C)C)C(=O)N[C@@H](CO)C(=O)N1)C(=O)N[C@H](C)C(=O)N[C@H](Cc1ccccc1)C(=O)O
B3: Apelin cyclic peptide conjugated to a fatty acid via a BCN-PEG linker: … (peptide)
peptide: ERPCLSCKGPL
modifications: pE at 1; disulfide C4-C7; Lys 8 N6 carries the BCN carbamate, joined by click reaction to azido-dPEG23-amide of docos-21-ene-1,11,11-tricarboxylic acid (fatty acid-PEG linker, compound A); D-Nle at 11 with C-terminal NH(Phenethyl) amide
B4: Ac-C*-R-P-R-L-S-C*-K-G-P-Nle-P-a-OH (peptide)
peptide: Ac-CRPRLSCKGP[Nle]P[dA]-OH
modifications: disulfide 1-7
SMILES: CCCC[C@H](NC(=O)[C@@H]1CCCN1C(=O)CNC(=O)[C@H](CCCCN)NC(=O)[C@@H]1CSSC[C@H](NC(C)=O)C(=O)N[C@@H](CCCNC(=N)N)C(=O)N2CCC[C@H]2C(=O)N[C@@H](CCCNC(=N)N)C(=O)N[C@@H](CC(C)C)C(=O)N[C@@H](CO)C(=O)N1)C(=O)N1CCC[C@H]1C(=O)N[C@H](C)C(=O)O
B5: Ac-hC*-R-P-R-L-S-hC*-K-G-P-Nle-P-F-OH (peptide)
peptide: Ac-[hCys]RPRLS[hCys]KGP[Nle]PF-OH
modifications: disulfide 1-7
SMILES: CCCC[C@H](NC(=O)[C@@H]1CCCN1C(=O)CNC(=O)[C@H](CCCCN)NC(=O)[C@@H]1CCSSCC[C@H](NC(C)=O)C(=O)N[C@@H](CCCNC(=N)N)C(=O)N2CCC[C@H]2C(=O)N[C@@H](CCCNC(=N)N)C(=O)N[C@@H](CC(C)C)C(=O)N[C@@H](CO)C(=O)N1)C(=O)N1CCC[C@H]1C(=O)N[C@@H](Cc1ccccc1)C(=O)O
B6: Ac-C*-R-P-R-L-S-hC*-K-G-P-Nle-P-F-OH (peptide)
peptide: Ac-CRPRLS[hCys]KGP[Nle]PF-OH
modifications: disulfide 1-7
SMILES: CCCC[C@H](NC(=O)[C@@H]1CCCN1C(=O)CNC(=O)[C@H](CCCCN)NC(=O)[C@@H]1CCSSC[C@H](NC(C)=O)C(=O)N[C@@H](CCCNC(=N)N)C(=O)N2CCC[C@H]2C(=O)N[C@@H](CCCNC(=N)N)C(=O)N[C@@H](CC(C)C)C(=O)N[C@@H](CO)C(=O)N1)C(=O)N1CCC[C@H]1C(=O)N[C@@H](Cc1ccccc1)C(=O)O
B7: pE-R-P-c*-L-S-(D-hC)*-K-G-P-(D-Nle)-a-y-OH (peptide)
peptide: ERPCLSCKGPLAY
modifications: pE at 1; D-Cys (c) at 4; D-hC at 7; disulfide 4-7; D-Nle at 11; D-Ala (a) at 12; D-Tyr (y) at 13; free C-terminal acid
B8: pE-R-C*-R-L-S-(D-hC)*-K-G-P-f-a-f-OH (peptide)
peptide: [pGlu]RCRLS[d(hCys)]KGP[dF][dA][dF]-OH
modifications: disulfide 3-7
SMILES: CC(C)C[C@@H]1NC(=O)[C@H](CCCNC(=N)N)NC(=O)[C@@H](NC(=O)[C@H](CCCNC(=N)N)NC(=O)[C@@H]2CCC(=O)N2)CSSCC[C@H](C(=O)N[C@@H](CCCCN)C(=O)NCC(=O)N2CCC[C@H]2C(=O)N[C@H](Cc2ccccc2)C(=O)N[C@H](C)C(=O)N[C@H](Cc2ccccc2)C(=O)O)NC(=O)[C@H](CO)NC1=O
B9: pE-R-P-(D-hC)*-L-S-hC*-K-G-P-(D-Nle)-(D-Nva)-f-OH (peptide)
peptide: ERPCLSCKGPLVF
modifications: pE at 1; D-hC at 4; hC at 7; disulfide 4-7; D-Nle at 11; D-Nva (D-norvaline) at 12; D-Phe (f) at 13; free C-terminal acid
B10: H-R-P-C*-L-S-C*-K-(D-Nle)-a-f-OH (peptide)
peptide: H-RPCLSCK[dNle][dA][dF]-OH
modifications: disulfide 3-6
SMILES: CCCC[C@@H](NC(=O)[C@H](CCCCN)NC(=O)[C@@H]1CSSC[C@H](NC(=O)[C@@H]2CCCN2C(=O)[C@@H](N)CCCNC(=N)N)C(=O)N[C@@H](CC(C)C)C(=O)N[C@@H](CO)C(=O)N1)C(=O)N[C@H](C)C(=O)N[C@H](Cc1ccccc1)C(=O)O
B11: pE-R-P-hC*-L-S-C*-K-G-P-f-a-f-OH (peptide)
peptide: ERPCLSCKGPFAF
modifications: pE at 1; hC (L-homocysteine) at 4; disulfide hC4-C7; D-Phe (f) at 11; D-Ala (a) at 12; D-Phe (f) at 13; free C-terminal acid
B12: Ac-C*-R-P-R-L-S-C*-K-G-P-Nle-P-NH2 (peptide)
peptide: Ac-CRPRLSCKGP[Nle]P-NH2
modifications: disulfide 1-7
SMILES: CCCC[C@H](NC(=O)[C@@H]1CCCN1C(=O)CNC(=O)[C@H](CCCCN)NC(=O)[C@@H]1CSSC[C@H](NC(C)=O)C(=O)N[C@@H](CCCNC(=N)N)C(=O)N2CCC[C@H]2C(=O)N[C@@H](CCCNC(=N)N)C(=O)N[C@@H](CC(C)C)C(=O)N[C@@H](CO)C(=O)N1)C(=O)N1CCC[C@H]1C(N)=O
B13: pE-R-c*-R-L-S-C*-K-G-P-(D-Nle)-(D-abu)-f-OH (peptide)
peptide: [pGlu]R[dC]RLSCKGP[dNle][dAbu][dF]-OH
modifications: disulfide 3-7
SMILES: CCCC[C@@H](NC(=O)[C@@H]1CCCN1C(=O)CNC(=O)[C@H](CCCCN)NC(=O)[C@@H]1CSSC[C@@H](NC(=O)[C@H](CCCNC(=N)N)NC(=O)[C@@H]2CCC(=O)N2)C(=O)N[C@@H](CCCNC(=N)N)C(=O)N[C@@H](CC(C)C)C(=O)N[C@@H](CO)C(=O)N1)C(=O)N[C@H](CC)C(=O)N[C@H](Cc1ccccc1)C(=O)O

Bridges are numbered along the chain shown (N, C = ends). [ ]: non-standard residue; d: D form. 2Nal = N[C@@H](Cc1ccc2ccccc2c1)C(=O)O; NMeF = CN[C@@H](Cc1ccccc1)C(=O)O; pGlu = O=C1CC[C@@H](C(=O)O)N1; d(hCys) = N[C@H](CCS)C(=O)O; dNle = CCCC[C@@H](N)C(=O)O; hCys = N[C@@H](CCS)C(=O)O; Nle = CCCC[C@H](N)C(=O)O; dAbu = CC[C@@H](N)C(=O)O

For the assay, the target named is T1, human APJ receptor (hAPJ). The experiment in a line: cell-based or functional assay.
As for B1, the “hAPJ Ca^2+ Flux EC50” value turned out to be 1.9 nM.
ERPCLSCKGPLPF (pE at 1; disulfide C4-C7; Nle at 11; (N-Me)F at 13; free C-terminal acid) [pE-R-P-C*-L-S-C*-K-G-P-Nle-P-(N-Me)F-OH]: the “hAPJ Ca^2+ Flux EC50” value was found to be 4.2 nM.
As to B2, the “hAPJ Ca^2+ Flux EC50” value was 2 nM.
Regarding Ac-CRPRLSCKGP[Nle]P[2Nal]-OH (disulfide 1-7) [Ac-C*-R-P-R-L-S-C*-K-G-P-Nle-P-Nal-OH], the “hAPJ Ca^2+ Flux EC50” value came out at 1.6 nM.
As to ERPCLSCKGPL (pE at 1; disulfide C4-C7; D-Nle at 11 with C-terminal NH(Phenethyl) amide) [pE-R-P-C*-L-S-C*-K-G-P-(D-Nle)-NH(Phenethyl)], the “hAPJ Ca^2+ Flux EC50” value turned out to be 3 nM.
Consider ERPCLSCKGPL (pE at 1; disulfide C4-C7; Nle at 11 with C-terminal NH(Phenethyl) amide) [pE-R-P-C*-L-S-C*-K-G-P-Nle-NH(Phenethyl)], for which the “hAPJ Ca^2+ Flux EC50” value was 0.5 nM.
As for B3, the “hAPJ Ca^2+ Flux EC50” value was found to be 2480 nM.
In the case of B4, the “hAPJ Ca^2+ Flux EC50” value was 13.1 nM.
The result for B5 reads 11.8 nM; that for ERPCLSCKGPLP (pE at 1; disulfide C4-C7; Nle at 11; C-terminal NH(Phenethyl) amide on P12) [pE-R-P-C*-L-S-C*-K-G-P-Nle-P-NH(Phenethyl)], 0.4 nM.
Consider B6, for which the “hAPJ Ca^2+ Flux EC50” value is 21.4 nM.
The result for Ac-CRPRLSCKGP[Nle]P[NMeF]-OH (disulfide 1-7) [Ac-C*-R-P-R-L-S-C*-K-G-P-Nle-P-(N-Me)F-OH] reads 64.5 nM.
For the molecule B7, the “hAPJ Ca^2+ Flux EC50” value was 937 nM.
The result for B8 reads 2290 nM.
Under B9 stands 175 nM; under B10, 66.7 nM.
With B11, the “hAPJ Ca^2+ Flux EC50” value amounted to 4.2 nM.
Turning to ERPCLSCKGPLF (pE at 1; disulfide C4-C7; D-Nle at 11; D-Phe (f) at 12; free C-terminal acid) [pE-R-P-C*-L-S-C*-K-G-P-(D-Nle)-f-OH], the “hAPJ Ca^2+ Flux EC50” value was found to be 0.6 nM.
With B12, the “hAPJ Ca^2+ Flux EC50” value came out at 74.6 nM.
Turning to B13, the “hAPJ Ca^2+ Flux EC50” value was 86.5 nM.
As for ERPCLSCKGPLPF (pE at 1; disulfide C4-C7; Nle at 11; free C-terminal acid) [pE-R-P-C*-L-S-C*-K-G-P-Nle-P-F-OH], the “hAPJ Ca^2+ Flux EC50” value came to 3.1 nM.
With Ac-CRPRLSCKGP[Nle]P-{NMe(Phenethyl)} (disulfide 1-7) [Ac-C*-R-P-R-L-S-C*-K-G-P-Nle-P-NMe(Phenethyl)], the “hAPJ Ca^2+ Flux EC50” value was found to be 23.4 nM.

(Values after US20160108091A1 (Novartis, published 2016).)
